According to patent publication US20260125472A1 (HEFEI TG IMMUNOPHARMA, published 2026):

How the values were obtained:
[1] = target: T1, CD3E&D protein (UniProt P04234 22-105); assay: ELISA, coated CD3E&D protein, OD450 [panel B]
T1 construct: Purchased from Acro; also called CD3 E&D antigens; CD3E&D antigen protein
Excerpt: In this example, the binding properties of the CD3×Trop2 and CD3×PDL1 bispecific antibody (the production method and the amino acid sequences of the heavy and light chains were shown in Example 1) were detected by using ELISA. The CD3E&D, Trop2, or PDL1 protein was coated onto 96-well plates by inventors, and the strength of the signal after the addition of the antibody was used to determine the binding properties of the antibody and the corresponding protein.
(1) CD3E&D protein (purchased from Acro) was diluted to 2 μg/ml with PBS buffer, added to a 96-well plate at a volume of 100 μL/well, and placed at 4° C. overnight. The PBS buffer in the 96-well plate was aspirated, and the plate was washed 6 times with PBST (pH 7.2 PBS containing 0.1% Tween 20) buffer. Then, 200 μL/well PBS/10% BSA was added and incubated at 37° C. for 2 h for blocking. The blocking solution was removed, and the plate was washed 6 times with PBST. Then, the to-be-tested bispecific antibodies serially diluted with PBST/0.05% BSA, Cross3×Trop2, Cross303×Trop2, Cross307×Trop2, Cross308×Trop2, Cross309×Trop2, Cross310×Trop2, Cross311×Trop2, Cross312×Trop2, Cross313×Trop2, Cross314×Trop2, Cross316×Trop2, Cross317×Trop2, Cross318×Trop2, Cross323×Trop2, Cross325×Trop2, Cross326×Trop2, Cross3×PDL1, Cross303×PDL1, Cross307×PDL1, Cross308×PDL1, Cross309×PDL1, Cross310×PDL1, Cross311×PDL1, Cross312×PDL1, Cross313×PDL1, Cross314×PDL1, Cross316×PDL1, Cross317×PDL1, Cross318×PDL1, Cross323×PDL1, Cross325×PDL1, Cross326×PDL1, and control IgG1LALA (purchased from Bio-Tech) were added at 100 μL/well, and incubated at 37° C. for 1 h. The reaction system was removed, and the plate was washed 6 times with PBST. Then, the cells were incubated at 37° C. for 1 h with HRP (horseradish peroxidase)-labeled anti-human secondary antibody (Fab specific) (purchased from Sigma) diluted with PBST/0.05% BSA at 100 μL/well. After the plate was washed six times with PBST, 80 μL/well TMB (tetramethylbenzidine) was added and incubated at room temperature for 3 min. […] The absorbance was read at 450 nm using a microplate reader.

[2] = target: T2, PDL1 on A-375 melanoma cells, HCT-15 colorectal cancer cells and A549 lung cancer cells (UniProt Q9NZQ7 19-290, limits assumed); assay: flow cytometry, A549 cells, MFI [panel B]
T2 construct: whole, on cells
T2 sequence (Q9NZQ7 19-290 limits assumed): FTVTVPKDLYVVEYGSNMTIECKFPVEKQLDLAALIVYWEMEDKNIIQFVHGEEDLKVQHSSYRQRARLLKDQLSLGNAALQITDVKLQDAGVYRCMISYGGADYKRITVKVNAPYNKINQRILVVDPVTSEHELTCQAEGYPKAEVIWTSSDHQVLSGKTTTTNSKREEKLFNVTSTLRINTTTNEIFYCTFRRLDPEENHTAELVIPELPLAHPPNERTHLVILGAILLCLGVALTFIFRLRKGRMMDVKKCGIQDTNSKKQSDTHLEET
Procedure: (2) The tumor cells were diluted to 2×10⁶/ml with PBS and added to a 1.5 ml EP tube at a volume of 100 μl/tube, and goat serum was added thereto at 10 μl/tube. The cells were blocked at 4° C. for 30 min. The serially diluted bispecific antibodies, Cross3×Trop2, Cross303×Trop2, Cross307×Trop2, Cross308×Trop2, Cross309×Trop2, Cross310×Trop2, Cross311×Trop2, Cross312×Trop2, Cross313×Trop2, Cross314×Trop2, Cross316×Trop2, Cross317×Trop2, Cross318×Trop2, Cross323×Trop2, Cross325×Trop2, Cross326×Trop2, and Cross3×PDL1, Cross303×PDL1, Cross307×PDL1, Cross308×PDL1, Cross309×PDL1, Cross310×PDL1, Cross311×PDL1, Cross312×PDL1, Cross313×PDL1, Cross314×PDL1, Cross316×PDL1, Cross317×PDL1, Cross318×PDL1, Cross323×PDL1, Cross325×PDL1, Cross326×PDL1, and control hIgG1LALA (purchased from Bio-Tech) were added and incubated at 4° C. for 30 min. 1 ml of PBS was added to the EP tube, followed by centrifugation at 3500 rpm for 5 min at 4° C. The supernatant was discarded, and the cells were washed again with PBS. After centrifugation, the supernatant was completely discarded, and the cells were resuspended with PBS at 100 μl/tube. Alexa-647-labeled goat anti-human IgG secondary antibody (purchased from Jackson lab) was added at 1 μl/tube and incubated at 4° C. in the dark for 30 min. The cells were washed twice with PBS, and the supernatant was completely discarded after centrifugation. The cells were resuspended with PBS at 200 μl/tube and assay was performed using the flow cytometry.

[3] = target: T3, PDL1 protein (UniProt Q9NZQ7 19-238); assay: ELISA, coated PDL1 protein, OD450 [panel B]
T3 construct: Bought recombinant protein
T3 sequence (Q9NZQ7 19-238 limits assumed): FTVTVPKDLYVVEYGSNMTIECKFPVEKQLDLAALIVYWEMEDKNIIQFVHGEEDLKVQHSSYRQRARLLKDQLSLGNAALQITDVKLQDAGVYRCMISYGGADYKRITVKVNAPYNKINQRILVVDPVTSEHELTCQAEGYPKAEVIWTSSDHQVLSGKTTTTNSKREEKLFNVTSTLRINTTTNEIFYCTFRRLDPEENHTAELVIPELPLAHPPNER
Procedure: (3) PDL1 protein (purchased from Acro) was diluted to 2 μg/ml with PBS buffer, added to a 96-well plate at a volume of 100 μL/well, and placed at 4° C. overnight. The PBS buffer in the 96-well plate was aspirated, and the plate was washed 6 times with PBST (pH 7.2 PBS containing 0.10% Tween 20) buffer. Then, PBS/10% BSA was added at 200 μL/well and incubated at 37° C. for 2 h for blocking. The blocking solution was removed, and the plate was washed six times with PBST. Then, the to-be-tested bispecific antibodies serially diluted with PBST/0.05% BSA, Cross3×PDL1, Cross303×PDL1, Cross307×PDL1, Cross308×PDL1, Cross309×PDL1, Cross310×PDL1, Cross311×PDL1, Cross312×PDL1, Cross313×PDL1, Cross314×PDL1, Cross316×PDL1, Cross317×PDL1, Cross318×PDL1, Cross323×PDL1, Cross325×PDL1, Cross326×PDL1, and control IgG1LALA (purchased from Bio-Tech) were added at 100 μL/well, and incubated at 37° C. for 1 h. The reaction system was removed, and the plate was washed 6 times with PBST. Then, the cells were incubated at 37° C. for 1 h with HRP (horseradish peroxidase)-labeled anti-human secondary antibody (Fab specific) (purchased from Sigma) serially diluted with PBST/0.05% BSA at 100 μL/well. After the plate was washed six times with PBST, TMB (tetramethylbenzidine) was added at 80 μL/well and incubated at room temperature for 3 min. 4 M sulfuric acid was added at 80 μL/well to terminate the reaction. The absorbance was read at 450 nm using a microplate reader.

T1 sequence (chain, as listed by the source limits assumed, chain 1 of 2): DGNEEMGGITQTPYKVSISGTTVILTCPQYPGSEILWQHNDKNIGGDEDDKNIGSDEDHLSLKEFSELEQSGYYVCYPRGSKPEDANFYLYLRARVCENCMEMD
T1 sequence (P04234 22-105 limits assumed, chain 2 of 2): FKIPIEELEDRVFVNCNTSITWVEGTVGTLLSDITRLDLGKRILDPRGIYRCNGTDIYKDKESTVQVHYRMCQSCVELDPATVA

Row | Binder | EC50 (read off the curve) [1] [mg/L] | EC50 (read off the curve) [2] [mg/L] | EC50 (read off the curve) [3] [mg/L]
1 | Cross318×PDL1 (bispecific antibody, human IgG1, kappa, L234A L235A) scFv: not shown heavy: QVQLVQSGAEVKKPGASVKVSCKASGYSFTGYYMHWVRQAPGQGLEWIGRINPYNGATTYSQNFKDRATMTVDTSISTAYMELSRLRSDDTAVYYCVPTGMGYFLMDYWGQGTLVTVSSASTKGPSVFPLAPSSKSTSGGTAALGCLVKDYFPEPVTVSWNSGALTSGVHTFPAVLQSSGLYSLSSVVTVPSSSLGTQTYICNVNHKPSNTKVDKKVEPKSCDKTHTCPPCPAPEAAGGPSVFLFPPKPKDTLMISRTPEVTCVVVDVSHEDPEVKFNWYVDGVEVHNAKTKPREEQYNSTYRVVSVLTVLHQDWLNGKEYKCKVSNKALPAPIEKTISKAKGQPREPQVCTLPPSREEMTKNQVSLSCAVKGFYPSDIAVEWESNGQPENNYKTTPPVLDSDGSFFLVSKLTVDKSRWQQGNVFSCSVMHEALHNHYTQKSLSLSPGK light: DIQLTQSPSFLSASVGDRVTITCKASQDVGSAVVWYQQKPGKAPKLLIYWASTRHTGVPSRFSGSGSGTEFTLTISSLQPEDFATYFCQQFTSYPTFGQGTKLEIKRTVAAPSVFIFPPSDEQLKSGTASVVCLLNNFYPREAKVQWKVDNALQSGNSQESVTEQDSKDSTYSLSSTLTLSKADYEKHKVYACEVTHQGLSSPVTKSFNRGEC | ~1 | ~1 | ~0.2
2 | Cross323×PDL1 (bispecific antibody, human IgG1, kappa, L234A L235A) scFv: not shown heavy: QVQLVQSGAEVKKPGASVKVSCKASGYSFTGYYMHWVRQAPGQGLEWIGRINPYNGATTYSQNFKDRATMTVDTSISTAYMELSRLRSDDTAVYYCVPTGMGYFLMDYWGQGTLVTVSSASTKGPSVFPLAPSSKSTSGGTAALGCLVKDYFPEPVTVSWNSGALTSGVHTFPAVLQSSGLYSLSSVVTVPSSSLGTQTYICNVNHKPSNTKVDKKVEPKSCDKTHTCPPCPAPEAAGGPSVFLFPPKPKDTLMISRTPEVTCVVVDVSHEDPEVKFNWYVDGVEVHNAKTKPREEQYNSTYRVVSVLTVLHQDWLNGKEYKCKVSNKALPAPIEKTISKAKGQPREPQVCTLPPSREEMTKNQVSLSCAVKGFYPSDIAVEWESNGQPENNYKTTPPVLDSDGSFFLVSKLTVDKSRWQQGNVFSCSVMHEALHNHYTQKSLSLSPGK light: DIQLTQSPSFLSASVGDRVTITCKASQDVGSAVVWYQQKPGKAPKLLIYWASTRHTGVPSRFSGSGSGTEFTLTISSLQPEDFATYFCQQFTSYPTFGQGTKLEIKRTVAAPSVFIFPPSDEQLKSGTASVVCLLNNFYPREAKVQWKVDNALQSGNSQESVTEQDSKDSTYSLSSTLTLSKADYEKHKVYACEVTHQGLSSPVTKSFNRGEC | ~1 |  | ~0.2
